US20110271408A1 (University of California, published 2011)

Biological target: T1, HAB1-GAL4 AD (Gal4 activation domain (AD)-PP2C fusion protein encoded by pAD-HAB1) (UniProt Q9CAJ0 1-511, limits assumed)
T1 construct: Prey of the yeast two-hybrid assays; also called HAB1-AD
T1 sequence (looked up): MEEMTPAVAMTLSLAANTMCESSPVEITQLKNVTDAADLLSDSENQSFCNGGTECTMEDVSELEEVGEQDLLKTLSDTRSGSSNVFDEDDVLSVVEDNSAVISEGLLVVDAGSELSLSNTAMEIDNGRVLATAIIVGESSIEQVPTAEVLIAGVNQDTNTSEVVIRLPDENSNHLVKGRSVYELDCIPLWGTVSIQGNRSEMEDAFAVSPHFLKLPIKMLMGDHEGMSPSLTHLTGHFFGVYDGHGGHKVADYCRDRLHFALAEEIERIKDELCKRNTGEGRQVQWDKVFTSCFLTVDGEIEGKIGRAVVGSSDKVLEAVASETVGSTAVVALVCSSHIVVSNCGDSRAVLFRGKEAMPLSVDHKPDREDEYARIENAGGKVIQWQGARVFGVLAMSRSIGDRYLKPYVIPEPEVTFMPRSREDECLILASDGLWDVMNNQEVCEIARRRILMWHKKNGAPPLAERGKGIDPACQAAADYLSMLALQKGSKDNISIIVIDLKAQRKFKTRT
Test: yeast two-hybrid X-gal staining on increasing concentrations of fenhexamid (Y190 pAD-HAB1)

B1: PYL2 K64R, Y124H, M164I mutant, GAL4 BD fusion (pBD-PYL2) (receptor)
chain: MSSSPAVKGLTDEEQKTLEPVIKTYHQFEPDPTTCTSLITQRIHAPASVVWPLIRRFDNPERYRHFVKRCRLISGDGDVGSVREVTVISGLPASTSTERLEFVDDDHRVLSFRVVGGEHRLKNHKSVTSVNEFLNQDSGKVYTVVLESYTVDIPEGNTEEDTKIFVDTVVKLNLQKLGVAATSAPMHDDE
binding result: no binding
